The record followed here is patent publication US20240108738A1 (Bicycle, published 2024).

Numbered stars: 1 amine (or outer) side, 2 acyl side, 3 side chain; on linkers, the order of the positions; unused ones are H or OH. Bridge positions count the residues as written; N and C are the ends. Square brackets hold non-standard residues; d marks the D form. Ends that are not written are not given here. * marks the point of attachment. TATA = O=C(CC[*:1])N1CN(C(=O)CC[*:2])CN(C(=O)CC[*:3])C1; Ala(4-thiazolyl) = N[C@@H](Cc1cscn1)C(=O)O; 1Nal = N[C@@H](Cc1cccc2ccccc12)C(=O)O; 2Pal = N[C@@H](Cc1ccccn1)C(=O)O; Cba = N[C@@H](CC1CCC1)C(=O)O; Pent4ynoyl = C#CCCC(=O)*

The labels stand for the following.
B1: BCY16843 (peptide)
peptide: ACYLPDYLCGDEK(Pent4ynoyl)CA-NH2
modifications: linker 2-9-14 via TATA; N-terminus assumed
SMILES: C#CCCC(=O)NCCCC[C@@H]1NC(=O)[C@H](CCC(=O)O)NC(=O)[C@H](CC(=O)O)NC(=O)CNC(=O)[C@@H]2CSCCC(=O)N3CN(CN(C3)C(=O)CCSC[C@@H](C(=O)N[C@@H](C)C(N)=O)NC1=O)C(=O)CCSC[C@H](NC(=O)[C@H](C)N)C(=O)N[C@@H](Cc1ccc(O)cc1)C(=O)N[C@@H](CC(C)C)C(=O)N1CCC[C@H]1C(=O)N[C@@H](CC(=O)O)C(=O)N[C@@H](Cc1ccc(O)cc1)C(=O)N[C@@H](CC(C)C)C(=O)N2
notes: scaffold TATA
B2: BCY16837 (peptide)
peptide: ACYLPK(Pent4ynoyl)YLCGDEYCA-NH2
modifications: linker 2-9-14 via TATA; N-terminus assumed
SMILES: C#CCCC(=O)NCCCC[C@@H]1NC(=O)[C@@H]2CCCN2C(=O)[C@H](CC(C)C)NC(=O)[C@H](Cc2ccc(O)cc2)NC(=O)[C@@H](NC(=O)[C@H](C)N)CSCCC(=O)N2CN3CN(C2)C(=O)CCSC[C@@H](C(=O)N[C@@H](C)C(N)=O)NC(=O)[C@H](Cc2ccc(O)cc2)NC(=O)[C@H](CCC(=O)O)NC(=O)[C@H](CC(=O)O)NC(=O)CNC(=O)[C@H](CSCCC3=O)NC(=O)[C@H](CC(C)C)NC(=O)[C@H](Cc2ccc(O)cc2)NC1=O
notes: scaffold TATA
B3: BCY16840 (peptide)
peptide: ACYLPDYLCK(Pent4ynoyl)DEYCA-NH2
modifications: linker 2-9-14 via TATA; N-terminus assumed
SMILES: C#CCCC(=O)NCCCC[C@@H]1NC(=O)[C@@H]2CSCCC(=O)N3CN(CN(C3)C(=O)CCSC[C@@H](C(=O)N[C@@H](C)C(N)=O)NC(=O)[C@H](Cc3ccc(O)cc3)NC(=O)[C@H](CCC(=O)O)NC(=O)[C@H](CC(=O)O)NC1=O)C(=O)CCSC[C@H](NC(=O)[C@H](C)N)C(=O)N[C@@H](Cc1ccc(O)cc1)C(=O)N[C@@H](CC(C)C)C(=O)N1CCC[C@H]1C(=O)N[C@@H](CC(=O)O)C(=O)N[C@@H](Cc1ccc(O)cc1)C(=O)N[C@@H](CC(C)C)C(=O)N2
notes: scaffold TATA
B4: BCY18282 (peptide)
peptide: ACDLTT[Ala(4-thiazolyl)]NCQWGICA-NH2
modifications: linker 2-9-14 via TATA; N-terminus assumed
SMILES: CC[C@H](C)[C@@H]1NC(=O)CNC(=O)[C@H](Cc2c[nH]c3ccccc23)NC(=O)[C@H](CCC(N)=O)NC(=O)[C@@H]2CSCCC(=O)N3CN(CN(C3)C(=O)CCSC[C@@H](C(=O)N[C@@H](C)C(N)=O)NC1=O)C(=O)CCSC[C@H](NC(=O)[C@H](C)N)C(=O)N[C@@H](CC(=O)O)C(=O)N[C@@H](CC(C)C)C(=O)N[C@@H]([C@@H](C)O)C(=O)N[C@@H]([C@@H](C)O)C(=O)N[C@@H](Cc1cscn1)C(=O)N[C@@H](CC(N)=O)C(=O)N2
notes: scaffold TATA
B5: BCY17662 (peptide)
peptide: ACYLPDYLC[dK](Pent4ynoyl)DEYCA-NH2
modifications: linker 2-9-14 via TATA; N-terminus assumed
SMILES: C#CCCC(=O)NCCCC[C@H]1NC(=O)[C@@H]2CSCCC(=O)N3CN(CN(C3)C(=O)CCSC[C@@H](C(=O)N[C@@H](C)C(N)=O)NC(=O)[C@H](Cc3ccc(O)cc3)NC(=O)[C@H](CCC(=O)O)NC(=O)[C@H](CC(=O)O)NC1=O)C(=O)CCSC[C@H](NC(=O)[C@H](C)N)C(=O)N[C@@H](Cc1ccc(O)cc1)C(=O)N[C@@H](CC(C)C)C(=O)N1CCC[C@H]1C(=O)N[C@@H](CC(=O)O)C(=O)N[C@@H](Cc1ccc(O)cc1)C(=O)N[C@@H](CC(C)C)C(=O)N2
notes: scaffold TATA
B6: BCY18287 (peptide)
peptide: ACDLTTHNCQ[1Nal]GICA-NH2
modifications: linker 2-9-14 via TATA; N-terminus assumed
SMILES: CC[C@H](C)[C@@H]1NC(=O)CNC(=O)[C@H](Cc2cccc3ccccc23)NC(=O)[C@H](CCC(N)=O)NC(=O)[C@@H]2CSCCC(=O)N3CN(CN(C3)C(=O)CCSC[C@@H](C(=O)N[C@@H](C)C(N)=O)NC1=O)C(=O)CCSC[C@H](NC(=O)[C@H](C)N)C(=O)N[C@@H](CC(=O)O)C(=O)N[C@@H](CC(C)C)C(=O)N[C@@H]([C@@H](C)O)C(=O)N[C@@H]([C@@H](C)O)C(=O)N[C@@H](Cc1c[nH]cn1)C(=O)N[C@@H](CC(N)=O)C(=O)N2
notes: scaffold TATA
B7: BCY18292 (peptide)
peptide: ACDLTTHNCQW[dA]ICA-NH2
modifications: linker 2-9-14 via TATA; N-terminus assumed
SMILES: CC[C@H](C)[C@@H]1NC(=O)[C@@H](C)NC(=O)[C@H](Cc2c[nH]c3ccccc23)NC(=O)[C@H](CCC(N)=O)NC(=O)[C@@H]2CSCCC(=O)N3CN(CN(C3)C(=O)CCSC[C@@H](C(=O)N[C@@H](C)C(N)=O)NC1=O)C(=O)CCSC[C@H](NC(=O)[C@H](C)N)C(=O)N[C@@H](CC(=O)O)C(=O)N[C@@H](CC(C)C)C(=O)N[C@@H]([C@@H](C)O)C(=O)N[C@@H]([C@@H](C)O)C(=O)N[C@@H](Cc1c[nH]cn1)C(=O)N[C@@H](CC(N)=O)C(=O)N2
notes: scaffold TATA
B8: BCY16842 (peptide)
peptide: ACYLPDYLCGDK(Pent4ynoyl)YCA-NH2
modifications: linker 2-9-14 via TATA; N-terminus assumed
SMILES: C#CCCC(=O)NCCCC[C@@H]1NC(=O)[C@H](CC(=O)O)NC(=O)CNC(=O)[C@@H]2CSCCC(=O)N3CN(CN(C3)C(=O)CCSC[C@@H](C(=O)N[C@@H](C)C(N)=O)NC(=O)[C@H](Cc3ccc(O)cc3)NC1=O)C(=O)CCSC[C@H](NC(=O)[C@H](C)N)C(=O)N[C@@H](Cc1ccc(O)cc1)C(=O)N[C@@H](CC(C)C)C(=O)N1CCC[C@H]1C(=O)N[C@@H](CC(=O)O)C(=O)N[C@@H](Cc1ccc(O)cc1)C(=O)N[C@@H](CC(C)C)C(=O)N2
notes: scaffold TATA
B9: BCY18280 (peptide)
peptide: ACDLTT[2Pal]NCQWGICA-NH2
modifications: linker 2-9-14 via TATA; N-terminus assumed
SMILES: CC[C@H](C)[C@@H]1NC(=O)CNC(=O)[C@H](Cc2c[nH]c3ccccc23)NC(=O)[C@H](CCC(N)=O)NC(=O)[C@@H]2CSCCC(=O)N3CN(CN(C3)C(=O)CCSC[C@@H](C(=O)N[C@@H](C)C(N)=O)NC1=O)C(=O)CCSC[C@H](NC(=O)[C@H](C)N)C(=O)N[C@@H](CC(=O)O)C(=O)N[C@@H](CC(C)C)C(=O)N[C@@H]([C@@H](C)O)C(=O)N[C@@H]([C@@H](C)O)C(=O)N[C@@H](Cc1ccccn1)C(=O)N[C@@H](CC(N)=O)C(=O)N2
notes: scaffold TATA

The assay deals with T1, Human NKp46 Fc tag (Acro Biosystems, NC1-H5257) (human, UniProt O76036 22-255).
T1 construct: bought; also called Fc-tagged human NKp46
T1 sequence (O76036 22-255 limits assumed): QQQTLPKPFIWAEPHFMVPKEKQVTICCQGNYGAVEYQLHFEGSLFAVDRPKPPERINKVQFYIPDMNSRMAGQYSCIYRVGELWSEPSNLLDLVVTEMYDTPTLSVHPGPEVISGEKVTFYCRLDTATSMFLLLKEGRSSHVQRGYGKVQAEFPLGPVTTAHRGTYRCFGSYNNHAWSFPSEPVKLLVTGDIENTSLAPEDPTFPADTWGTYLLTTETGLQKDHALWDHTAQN
Kind of assay: SPR Method 1 and/or 2. On the procedure: The SPR analysis was run at 25° C. and a flow rate of 50 μl/min with 60 seconds association and 200-400 seconds dissociation time. Data were corrected for DMSO excluded volume effects. All data were double-referenced for blank injections and reference surface using standard processing procedures and data processing and kinetic fitting were performed using Scrubber software, version 2.0c (BioLogic Software). Data were fitted using simple 1:1 binding model allowing for mass transport effects where appropriate.
For analysis of peptide binding, a Biacore 8k+ instrument was used with a CM5 chip (Cytiva). All experiments were carried out at 25° C. Anti-human IgG (Fc) antibody (Cytiva) was immobilized on all flow cells by standard amine coupling chemistry. The running buffer was HBS-N(Cytiva, 10 mM HEPES, 0.15 M NaCl, pH 7.4) and the flow rate was 10 μL/min. The carboxymethyl dextran surface was activated with a 1:1 ratio of 0.4 M 1-ethyl-3-(3-dimethylaminopropyl) carbodiimide hydrochloride (EDC)/0.1 M N-hydroxy succinimide (NHS) (Cytiva) for 420s. […] Residual activated groups were blocked with a 420 s injection of 1 M ethanolamine (pH 8.5). The final surface density was 3000-5000 RU. Fc-tagged human NKp46 was diluted to 0.1 μM in HBS-N and was captured on flow cell 2 only of the sensor chip at a flow rate of 10 μL/min to 500-1000 RU. The buffer was then changed to PBS-P+(Cytiva) supplemented with 2% DMSO. […] The flow rate was 50 μL/min with 60 s association and 400 s dissociation. Data were corrected for DMSO volume exclusion effects. All data were double-referenced against blank injections and reference surface response using standard processing procedures. Data processing and kinetic fitting was performed using Biacore Insight Evaluation Software with Extended Screening and Characterization Extension (Cytiva). Data were fitted using steady state affinity 1:1 binding model to determine KD. Data were fitted using kinetic 1:1 binding model to determine kinetic constants where appropriate.
A word on the Kd: it is the equilibrium constant for the complex coming apart. The low end stands for tighter binding, the high end for weaker binding. As to B1, binding was put at a Kd of 3010 nM.
Under B2 stands 42 nM.
To B3 belongs 60 nM.
To ACDLTT[His3Me]NCQWGICA-NH2 (linker 2-9-14 via TATA; not fully specified, scaffold TATA) [BCY18279] belongs 599 nM; to ACDLTTHNC[Cba]WGICA-NH2 (linker 2-9-14 via TATA, scaffold TATA) [BCY18286], 1230 nM.
With B4, binding was put at a Kd of 661 nM.
Under Ac-ACDLTTHNCQWGICA-NH2 (linker 2-9-14 via TATA, scaffold TATA) [BCY18261] stands 543 nM; under Ac-CDLTTHNCQWGIC-NH2 (linker 1-8-13 via TATA, scaffold TATA) [BCY18260], 1240 nM; under B5, 8.1 nM.
Under B6 stands 637 nM; under ACDLTT[His1Me]NCQWGICA-NH2 (linker 2-9-14 via TATA; not fully specified, scaffold TATA) [BCY18281], 424 nM.
Under ACDLTTHNCQWGICA-NH2 (linker 2-9-14 via TATA; also: scaffold TATA, TATB or TBMT, scaffold TATA) [BCY15107] stands 396 nM; under ACNLTTHNCQWGICA-NH2 (linker 2-9-14 via TATA; also: scaffold TATA, TATB or TBMT, scaffold TATA) [BCY18273], 326 nM.
B7: the Kd was 1460 nM.
For the molecule ACDLTLHNCQWGICA-NH2 (linker 2-9-14 via TATA; also: scaffold TATA, TATB or TBMT, scaffold TATA) [BCY18278], the Kd turned out to be 335 nM.
Under B8 stands 2470 nM; under ACNLQNPCMKFPCAK(Pent4ynoyl)-NH2 (linker 2-8-13 via TATA (inferred), scaffold TATA) [BCY18004], 414 nM; under B9, 1270 nM.
In the case of ACLLHDHCPNTHPKLCAK(Pent4ynoyl)-NH2 (linker 2-8-16 via TATA (inferred), scaffold TATA) [BCY18005], the equilibrium dissociation constant (Kd) amounted to 729 nM.
